Results on three compounds are retold here after PMC7046716, “Oligomerization and characteristics of phosphoenolpyruvate carboxylase in Synechococcus PCC 7002” (Scientific Reports, 2020).

“And” between values parts separate entries of the source, which are not always exact repeats. Equal entries are not always repeated.

Assay [1] relates to T1, T_PEPc PCC 7002 (tetramer fraction of PEPc from Synechococcus PCC 7002).
T1 construct: gene ppc; N-terminal Strep-tag kept, E. coli BL21, pETBB
As to the kind of experiment: malate dehydrogenase-coupled NADH assay, […] nm, Hanes-Woolf plot. The class given is biochemical, Picosynechococcus sp. PCC 7002. Particulars: pH 8.0, 35 °C, SEC tetramer fraction.

Assay [2] relates to T2, PEPc PCC 7002 (Strep-column purified, mixed oligomer population).
T2 construct: gene ppc; N-terminal Strep-tag kept, E. coli BL21, pETBB; dimer/tetramer mixture purified with Mg2+
The description is as above. The class given is biochemical, Picosynechococcus sp. PCC 7002. As to conditions: pH 7.5, 35 °C, mixed dimer/tetramer.

For assay [3], the target named is Phosphoenolpyruvate carboxylase (PEPc) from Synechococcus PCC 7002 (Synechococcus PCC 7002). As to the kind of experiment: SEC; HiLoad 16/60 Superdex 200, 4 °C, TBS pH 8.0 with 10 mM MgCl2 (Mg_10); 500 µg protein at 0.87 mg/ml; dimer and tetramer peaks. (Size exclusion chromatography separates by hydrodynamic size, large species first.)
Assay [4] has the same target. As to the kind of experiment: SEC; HiLoad 16/60 Superdex 200, 4 °C, TBS pH 8.0 with 5 mM NaHCO3; 500 µg protein at 0.87 mg/ml; dimer and tetramer peaks.
Assay [5] has the same target. As to the kind of experiment: SEC-SAXS; Shodex KW-403 4.6 ml column, room temperature, 50 µl protein at 6.5 or 0.87 mg/ml in TBS pH 8.0 or TBS with 25 mM MgCl2; beamline B21, Diamond Light Source; three peaks analysed separately.
Assay [6] has the same target. As to the kind of experiment: SEC; HiLoad 16/60 Superdex 200, 4 °C, TBS pH 8.0 with 10 mM MgCl2 and 5 mM PEP; 500 µg protein at 0.87 mg/ml; dimer and tetramer peaks.
Assay [7] has the same target. As to the kind of experiment: SEC; HiLoad 16/60 Superdex 200, 4 °C, TBS pH 8.0 with 10 mM MgCl2 and 5 mM NaHCO3; 500 µg protein at 0.87 mg/ml; dimer and tetramer peaks.
Assay [8] has the same target. As to the kind of experiment: SEC; HiLoad 16/60 Superdex 200, 4 °C, TBS (100 mM Tris-HCl, 150 mM NaCl) pH 8.0, no addition; 500 µg protein at 0.87 mg/ml, incubated 30 min at room temperature in the same buffer; dimer and tetramer peaks.
The target is the same in assay [9]. As to the kind of experiment: SEC; HiLoad 16/60 Superdex 200, 4 °C, TBS pH 8.0 with 5 mM NaHCO3 and 5 mM PEP; 500 µg protein at 0.87 mg/ml; dimer and tetramer peaks.
For assay [10] the target is unchanged. As to the kind of experiment: SEC; HiLoad 16/60 Superdex 200, 4 °C, TBS pH 8.0 with 10 mM MgCl2, 5 mM NaHCO3 and 5 mM PEP (in vitro reaction); 500 µg protein at 0.87 mg/ml; dimer and tetramer peaks.
The target is the same in assay [11]. As to the kind of experiment: SEC; HiLoad 16/60 Superdex 200, 4 °C, TBS pH 8.0 with 5 mM PEP; 500 µg protein at 0.87 mg/ml; dimer and tetramer peaks.
Assay [12] has the same target. As to the kind of experiment: SEC; HiLoad 16/60 Superdex 200, 4 °C, TBS pH 8.0 with 25 mM MgCl2 (Mg_25); 500 µg protein at 0.87 mg/ml; dimer and tetramer peaks.
Setting [13] is: 10 mM MgCl2, co-substrate NaHCO3 (5 mM in the standard assay).
[14] abbreviates: 10 mM MgCl2, co-substrate PEP (5 mM in the standard assay).

The Km is the concentration of substrate that gives half-maximal velocity. As to `C=C(OP(=O)(O)O)C(=O)O` [PEP], the Km was determined as 770 µM in assay [1] (setting [13]) and 1060 µM in assay [2] (setting [13]).
With `O=C(O)O` [HCO3^−], the Km in [1] (setting [14]) came to 240 µM; in [2] (setting [14]), 970 µM.
A word on the stoichiometry N: it is the number of molecules, sites or subunits per partner or assembly. As to “Phosphoenolpyruvate carboxylase (PEPc) from Synechococcus PCC 7002 (enzyme)”, the ratio tetramer:dimer (peak values) (tetramer:dimer) in [3] came out at 0; in assay [4], 0; in assay [6], 1.3; in assay [7], 0.8; in assay [8], 0; in [9], 0.8. Moreover, the results for the ratio tetramer:dimer (peak values) (tetramer:dimer) in assay [11] and in [12] were 1.1 and 1.4, respectively. In addition, the stoichiometry N was 2 in assay [3]; 2 in assay [4]; 4 and 2 in [5]; 4 and 2 in assay [6]; 4 and 2 in assay [7]; 2 in assay [8]. Also, the stoichiometry N in assay [9] was 4 and 2; in assay [10], 4 and 2; in [11] it was 4 and 2; in assay [12], 4 and 2.
